Patent US20250295803A1, “5T4 ANTIBODY-DRUG CONJUGATES AND USES THEREOF” (EXELIXIS, INC., priority 2022, published 2025)

Experiments:
[1] = target: T1, biotinylated mouse 5T4 with His-Avi tag (produced in-house) (mouse, UniProt Q9Z0L0 32-361, biotin on the Avi tag); experiment: Octet, biotinylated antigen on streptavidin biosensors, antibody at 500 nM (bivalent)
T1 construct: also called Mouse 5T4 Octet (bivalent); not shown: C-terminal 6-His-Avi tag
T1 sequence: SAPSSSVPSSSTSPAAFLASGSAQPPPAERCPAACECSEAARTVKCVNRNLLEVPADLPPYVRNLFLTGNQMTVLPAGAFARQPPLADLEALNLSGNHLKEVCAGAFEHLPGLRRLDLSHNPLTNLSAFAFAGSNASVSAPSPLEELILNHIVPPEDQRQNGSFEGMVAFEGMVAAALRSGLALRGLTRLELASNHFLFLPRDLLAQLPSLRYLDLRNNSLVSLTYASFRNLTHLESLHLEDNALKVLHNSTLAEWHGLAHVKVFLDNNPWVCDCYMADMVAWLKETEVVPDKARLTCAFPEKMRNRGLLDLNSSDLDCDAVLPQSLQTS

[2] = target: T2, biotinylated cynomolgus 5T4 with His-Avi tag (produced in-house) (cynomolgus monkey, UniProt Q4R8Y9 35-355, biotin on the Avi tag); experiment: as above
T2 construct: also called cyno 5T4; Cyno 5T4 Octet (bivalent); not shown: C-terminal 6-His-Avi tag
T2 sequence: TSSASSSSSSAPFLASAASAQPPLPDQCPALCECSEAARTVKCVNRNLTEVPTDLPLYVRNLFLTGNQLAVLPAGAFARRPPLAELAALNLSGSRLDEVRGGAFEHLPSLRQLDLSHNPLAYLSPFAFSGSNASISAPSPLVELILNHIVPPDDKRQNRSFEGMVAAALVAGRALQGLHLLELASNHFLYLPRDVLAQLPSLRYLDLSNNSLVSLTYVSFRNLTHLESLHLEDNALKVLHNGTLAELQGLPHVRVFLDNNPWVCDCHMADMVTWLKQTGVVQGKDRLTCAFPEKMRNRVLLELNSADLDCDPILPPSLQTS

[3] = target: T3, cynomolgus 5T4 on cells (HEK-cyno-5T4, transfected HEK293 and CHO cells) (cynomolgus monkey, UniProt Q4R8Y9 35-420); experiment: flow cytometry on HEK-cyno-5T4 cells
T3 construct: also called HEK-cyno-5T4 cells
T3 sequence: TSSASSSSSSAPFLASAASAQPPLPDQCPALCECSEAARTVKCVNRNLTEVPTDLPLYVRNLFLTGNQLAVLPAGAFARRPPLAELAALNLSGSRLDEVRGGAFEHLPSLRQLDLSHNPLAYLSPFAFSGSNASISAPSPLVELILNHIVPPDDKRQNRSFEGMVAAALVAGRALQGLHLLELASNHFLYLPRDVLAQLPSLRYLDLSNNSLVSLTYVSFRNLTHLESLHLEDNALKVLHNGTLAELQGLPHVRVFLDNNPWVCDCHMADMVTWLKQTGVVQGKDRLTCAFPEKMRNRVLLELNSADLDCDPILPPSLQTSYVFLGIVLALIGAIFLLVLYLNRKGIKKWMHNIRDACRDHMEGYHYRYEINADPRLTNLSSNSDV

[4] = target: T4, cyno 5T4 (Macaca fascicularis, UniProt Q4R8Y9); experiment: Octet bivalent binding assay, cyno 5T4; design: species or system cynomolgus monkey; key: +: An increase in signal during the association step above the negative control was considered as binding to the antigen; conditions: 200 nM biotinylated antigen immobilized, antibody at 500 nM
T4 construct: made in house
T4 sequence (Q4R8Y9 35-355 limits assumed): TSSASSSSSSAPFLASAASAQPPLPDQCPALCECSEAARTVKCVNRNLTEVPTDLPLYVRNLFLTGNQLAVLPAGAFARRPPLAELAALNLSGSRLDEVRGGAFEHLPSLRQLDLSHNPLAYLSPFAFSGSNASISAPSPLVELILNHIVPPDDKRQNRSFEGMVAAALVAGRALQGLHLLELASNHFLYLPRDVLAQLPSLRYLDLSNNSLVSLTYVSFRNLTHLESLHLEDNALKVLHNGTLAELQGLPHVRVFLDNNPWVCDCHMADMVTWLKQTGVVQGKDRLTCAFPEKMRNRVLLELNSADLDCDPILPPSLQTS
From the text: (§1) Bivalent binding assays were employed to provide data on whether antibodies with VH/VL obtained by the phage display in Example 1 bound immobilized 5T4 from all three clinically relevant species: human, cynomolgus monkey (cyno), and mouse. For the bivalent binding and cross-reactivity assays the 5T4 human, cyno, and mouse antigens were synthesized using sequences from the protein database and expressed as biotinylated proteins using a his-avi tag and in vivo biotinylation with co-expressed BirA enzyme.
(§2) A standard Octet-based assay was used to determine qualitatively if each antibody bound to each antigen. For these assays, 200 nM biotinylated antigens were immobilized on streptavidin biosensors in 1× kinetic buffer (ForteBio). The loaded sensors were then dipped in wells containing an antibody of interest at 500 nM and the association binding signal was monitored. An increase in signal during the association step above the negative control was considered as binding to the antigen.

[5] = target: T5, mouse 5T4 (Mus musculus, UniProt Q9Z0L0); experiment: Octet bivalent binding assay, mouse 5T4; design: key: +: An increase in signal during the association step above the negative control was considered as binding to the antigen; conditions: 200 nM biotinylated antigen immobilized, antibody at 500 nM
T5 construct: made in house
T5 sequence (Q9Z0L0 32-361 limits assumed): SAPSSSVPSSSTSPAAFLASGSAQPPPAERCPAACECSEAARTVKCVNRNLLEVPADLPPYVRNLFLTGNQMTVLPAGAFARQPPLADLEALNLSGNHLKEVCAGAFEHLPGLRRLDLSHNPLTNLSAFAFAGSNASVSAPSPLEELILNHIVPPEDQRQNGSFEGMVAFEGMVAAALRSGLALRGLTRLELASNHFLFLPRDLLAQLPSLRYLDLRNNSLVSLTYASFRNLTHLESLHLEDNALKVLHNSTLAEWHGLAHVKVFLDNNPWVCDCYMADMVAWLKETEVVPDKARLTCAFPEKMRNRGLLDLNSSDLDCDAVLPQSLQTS
From the text: as §1, §2

[6] = target: T6, human 5T4 (Homo sapiens, UniProt Q13641); experiment: Octet bivalent binding assay, human 5T4; design: The extracellular domain of human 5T4 was purchased from Acro Biosystems (biotinylated human 5T4 His-AVITAG™ Acro Cat No. TPG-H83Eb) or produced; made in house; key: +: An increase in signal during the association step above the negative control was considered as binding to the antigen; conditions: 200 nM biotinylated antigen immobilized, antibody at 500 nM
T6 sequence (Q13641 32-355 limits assumed): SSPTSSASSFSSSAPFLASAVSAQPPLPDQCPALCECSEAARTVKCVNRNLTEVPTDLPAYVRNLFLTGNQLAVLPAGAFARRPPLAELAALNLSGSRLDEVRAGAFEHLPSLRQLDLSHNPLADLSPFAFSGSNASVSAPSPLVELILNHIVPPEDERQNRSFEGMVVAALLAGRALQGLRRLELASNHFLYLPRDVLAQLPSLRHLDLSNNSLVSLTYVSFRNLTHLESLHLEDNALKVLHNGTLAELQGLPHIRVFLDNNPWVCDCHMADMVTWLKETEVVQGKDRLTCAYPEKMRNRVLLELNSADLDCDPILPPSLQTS
From the text: as §1, §2

[7] = system: HEK-5T4 cells; experiment: Internalization assay (Incucyte FabFluor-pH), HEK-5T4 cells; format: cell-based
Procedure: Adherent cells were harvested at 70-90% confluence and were plated overnight at 37° C. in a 96-well black, clear/flat bottom half-area plate (Corning 3882) at 20,000 cells/well in 50 μL culture media. For suspension cell lines, 96-well plates were coated with poly-L-ornithine solution (Millipore-Sigma) for 1 hour at 37° C. and cells were seeded at 40,000 cells per/well density in 50 μL culture media, about 1 to 2 hours prior to the assay. Antibodies were diluted in cell culture media, mixed with 3× molar concentration of Incucyte human FabFluor-pH red antibody labelling reagent and incubated for 15 minutes at room temperature. 2× final concentration of all dilutions of antibody/FabFluor mix was prepared. 50 μL of 2× antibody/Fab-Fluor mix was then directly added to every well with pre-seeded cells in duplicates and plate was quickly transferred to Incucyte. Plates were then scanned every 30 minutes for up to 24 hours. Care was taken to begin the first scanning (0 hour) within 2 to 3 minutes of adding antibody/FabFluor mix to the cells. Plates were analyzed by reading the red signal generated overtime, normalized to the % confluence of cells in that well. Few antibodies were tested at different concentrations on target cell lines, and the best concentration was selected based on a good signal:noise ratio.

B1: mAbA17 (antibody, V domains shown)
VH: EVQLVESGGGLVQPGGSLRLSCAASGFTFSRYWIHWVRQAPGKGLEWVAAIFPYSGSTLYADSVKGRFTISADTSKNTAYLQMNSLRAEDTAVYYCARSPSRSILPSGLDYWGQGTLVTVSS
VL: DIQMTQSPSSLSASVGDRVTITCRASQSVSSAVAWYQQKPGKAPKLLIYSASSLYSGVPSRFSGSRSGTDFTLTISSLQPEDFATYYCQQGDGSPYTFGQGTKVEIKR
notes: also called Antibody mAbA17
- binding result [1]: binds
- binding result [2]: binds

B2: mAbA4 (antibody, V domains shown)
VH: EVQLVESGGGLVQPGGSLRLSCAASGFTFSRYYIHWVRQAPGKGLEWVAFISPGGSYTYYADSVKGRFTISADTSKNTAYLQMNSLRAEDTAVYYCAREYYSMGVLDYWGQGTLVTVSS
VL: DIQMTQSPSSLSASVGDRVTITCRASQSVSSAVAWYQQKPGKAPKLLIYSASSLYSGVPSRFSGSRSGTDFTLTISSLQPEDFATYYCQQAYESPYTFGQGTKVEIKR
notes: also called Antibody mAbA4
- binding result [3]: binds

B3: mAbA17: 5T4 antibody comprising VH of SEQ ID NO:62 and VL of SEQ ID NO:63 (antibody, V domains shown)
VH: EVQLVESGGGLVQPGGSLRLSCAASGFTFSRYWIHWVRQAPGKGLEWVAAIFPYSGSTLYADSVKGRFTISADTSKNTAYLQMNSLRAEDTAVYYCARSPSRSILPSGLDYWGQGTLVTVSS
VL: DIQMTQSPSSLSASVGDRVTITCRASQSVSSAVAWYQQKPGKAPKLLIYSASSLYSGVPSRFSGSRSGTDFTLTISSLQPEDFATYYCQQGDGSPYTFGQGTKVEIK
modifications: Antibody mAbA17 VH Sequence; Antibody mAbA17 VL Sequence
- Cyno 5T4 Octet (bivalent) [4]: +
- Mouse 5T4 Octet (bivalent) [5]: +
- Human 5T4 Octet (bivalent) [6]: +

B4: mAbA15 (antibody, V domains shown)
VH: EVQLVESGGGLVQPGGSLRLSCAASGFTFSSYYIHWVRQAPGKGLEWVAYITSTGSYTEYADSVKGRFTISADTSKNTAYLQMNSLRAEDTAVYYCARYDRSTRYSGLDYWGQGTLVTVSS
VL: DIQMTQSPSSLSASVGDRVTITCRASQSVSSAVAWYQQKPGKAPKLLIYSASSLYSGVPSRFSGSRSGTDFTLTISSLQPEDFATYYCQQAYATPVTFGQGTKVEIKR
notes: also called Antibody mAbA15
- binding result [1]: binds
- binding result [2]: binds
- binding result [3]: binds

B5: mAbA4: 5T4 antibody comprising VH of SEQ ID NO:25 and VL of SEQ ID NO:26 (antibody, V domains shown)
VH: EVQLVESGGGLVQPGGSLRLSCAASGFTFSRYYIHWVRQAPGKGLEWVAFISPGGSYTYYADSVKGRFTISADTSKNTAYLQMNSLRAEDTAVYYCAREYYSMGVLDYWGQGTLVTVSS
VL: DIQMTQSPSSLSASVGDRVTITCRASQSVSSAVAWYQQKPGKAPKLLIYSASSLYSGVPSRFSGSRSGTDFTLTISSLQPEDFATYYCQQAYESPYTFGQGTKVEIK
modifications: Antibody mAbA4 VH Sequence; Antibody mAbA4 VL Sequence
- internalization in HEK-5T4 cells [7]: strong internalization

B6: mAbA15: 5T4 antibody comprising VH of SEQ ID NO:44 and VL of SEQ ID NO:45 (antibody, V domains shown)
VH: EVQLVESGGGLVQPGGSLRLSCAASGFTFSSYYIHWVRQAPGKGLEWVAYITSTGSYTEYADSVKGRFTISADTSKNTAYLQMNSLRAEDTAVYYCARYDRSTRYSGLDYWGQGTLVTVSS
VL: DIQMTQSPSSLSASVGDRVTITCRASQSVSSAVAWYQQKPGKAPKLLIYSASSLYSGVPSRFSGSRSGTDFTLTISSLQPEDFATYYCQQAYATPVTFGQGTKVEIK
modifications: Antibody mAbA15 VH Sequence; Antibody mAbA15 VL Sequence
- Cyno 5T4 Octet (bivalent) [4]: +
- internalization in HEK-5T4 cells [7]: strong internalization
- Mouse 5T4 Octet (bivalent) [5]: +
- Human 5T4 Octet (bivalent) [6]: +
